The record followed here is US20120039904A1 (Kyowa Kirin, published 2012).

Test [1] has as its target T1, human ASCT2 (system ASC amino acid transporter 2), endogenous on human tumour cell lines (human, UniProt Q15758 1-541).
T1 construct: Endogenous ASCT2 of cell lines KMS-11 (stated to express ASCT2 mRNA), WiDr and OPM-2; also called SLC1A5; ASCT2 on KMS-11, OPM-2, WiDr cells
T1 sequence: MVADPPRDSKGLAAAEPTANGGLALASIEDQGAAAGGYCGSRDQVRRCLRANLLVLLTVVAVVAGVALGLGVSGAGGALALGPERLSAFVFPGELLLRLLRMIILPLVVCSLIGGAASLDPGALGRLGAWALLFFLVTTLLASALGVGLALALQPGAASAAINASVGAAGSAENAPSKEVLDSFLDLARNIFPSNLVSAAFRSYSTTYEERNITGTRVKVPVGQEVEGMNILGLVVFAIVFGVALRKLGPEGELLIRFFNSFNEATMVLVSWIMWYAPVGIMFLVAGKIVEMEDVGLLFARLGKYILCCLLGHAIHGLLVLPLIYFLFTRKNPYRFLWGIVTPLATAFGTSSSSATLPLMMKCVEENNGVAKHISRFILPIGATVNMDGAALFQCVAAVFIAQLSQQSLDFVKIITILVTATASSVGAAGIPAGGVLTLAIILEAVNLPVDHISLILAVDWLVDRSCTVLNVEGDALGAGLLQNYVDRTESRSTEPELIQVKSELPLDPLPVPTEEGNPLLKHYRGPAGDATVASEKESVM
In words: flow cytometry on KMS-11 cells. (In general: Flow cytometry measures light scatter and fluorescence of single cells or particles in a stream.)

Test [2] concerns the target T2, mouse EL4 type ASCT2-myc/His (mouse/human chimeric ASCT2), expressed on CHO cells (human/mouse chimera, UniProt Q15758 1-541).
T2 construct: also called mEL4/CHO; mEL4
T2 sequence: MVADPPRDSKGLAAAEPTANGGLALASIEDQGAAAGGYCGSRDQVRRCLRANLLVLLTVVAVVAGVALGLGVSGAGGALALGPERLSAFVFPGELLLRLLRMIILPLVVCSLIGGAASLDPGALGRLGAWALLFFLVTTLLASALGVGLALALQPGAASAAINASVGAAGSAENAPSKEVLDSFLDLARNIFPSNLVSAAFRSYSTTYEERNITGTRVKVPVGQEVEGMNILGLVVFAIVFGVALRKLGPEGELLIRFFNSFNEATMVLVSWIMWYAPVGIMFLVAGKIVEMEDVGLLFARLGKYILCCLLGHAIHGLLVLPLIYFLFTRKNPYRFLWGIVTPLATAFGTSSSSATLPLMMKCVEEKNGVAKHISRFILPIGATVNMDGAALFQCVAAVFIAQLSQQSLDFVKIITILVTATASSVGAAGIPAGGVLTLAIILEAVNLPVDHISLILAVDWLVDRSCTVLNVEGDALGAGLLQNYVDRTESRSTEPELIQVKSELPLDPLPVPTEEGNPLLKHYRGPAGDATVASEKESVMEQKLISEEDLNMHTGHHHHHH
In words: flow cytometry on mEL4/CHO cells; '+' = presence of reactivity. The method, then:
Using the mouse ASCT2/CHO and mouse/human chimeric ASCT2/CHO cells constructed in Examples 10 and 11 and FITC-labeled anti-mouse immunoglobulin G (H+L) (manufactured by Dako) or ALEXA488-labeled anti-rat immunoglobulin G […] (manufactured by Invitrogen) as the secondary antibody, the reactivity of anti-ASCT2 monoclonal antibodies KM4008, KM4012 and KM4018 was measured in the same manner as in Example 9(1).
In Table 2, the symbols “+”, “−”, and “±” represent the presence of reactivity, the absence of reactivity, and the decrease in reactivity, respectively.

Test [3] addresses T3, human ASCT2-myc/His (fusion protein in which myc/His was added to the C-terminal of human ASCT2), expressed … (human, UniProt Q15758 1-541).
T3 construct: Amino acid transporter with C-terminal myc/His tag, stably expressed in CHO/DG44 cells; cell lysates of these cells were used for Western blotting and immunoprecipitation; also called ASCT2/CHO; human ASCT2-myc/His gene-introduced CHO cell
T3 sequence: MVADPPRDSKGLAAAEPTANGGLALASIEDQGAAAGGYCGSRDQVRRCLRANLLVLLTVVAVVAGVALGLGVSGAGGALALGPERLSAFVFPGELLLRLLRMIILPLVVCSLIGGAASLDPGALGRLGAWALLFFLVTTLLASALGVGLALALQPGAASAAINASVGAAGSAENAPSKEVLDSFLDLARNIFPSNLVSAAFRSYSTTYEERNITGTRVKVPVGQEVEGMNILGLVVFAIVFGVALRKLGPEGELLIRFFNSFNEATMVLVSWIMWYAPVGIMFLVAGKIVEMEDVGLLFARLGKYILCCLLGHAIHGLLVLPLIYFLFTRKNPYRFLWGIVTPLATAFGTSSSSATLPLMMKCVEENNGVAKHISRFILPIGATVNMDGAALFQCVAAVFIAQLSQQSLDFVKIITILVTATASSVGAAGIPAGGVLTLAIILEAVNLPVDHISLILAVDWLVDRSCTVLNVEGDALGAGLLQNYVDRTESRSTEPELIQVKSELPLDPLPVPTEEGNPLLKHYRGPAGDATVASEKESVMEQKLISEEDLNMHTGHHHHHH
Kind of test: flow cytometry on human ASCT2/CHO cells; '+' = presence of reactivity.

Test [4] has as its target T1, human ASCT2 (system ASC amino acid …). In words: flow cytometry on OPM-2 cells. As for the experimental part:
Each of the human ASCT2-myc/His gene-introduced CHO cell obtained in Example 2, and the multiple myeloma cell line OPM-2 (DSMZ Accession No. ACC50) was cultured in a 5% CO₂ incubator for 3 to 4 days at 37° C. The human ASCT2-myc/His gene-introduced CHO cells were detached with a 0.02% EDTA solution (manufactured by Nacalai Tesque), and in order to avoid the non-specific adsorption of antibodies, the cells were blocked for 30 minutes at ice temperature using 1% BSA-PBS.
The cells were seeded into a 96-well U-bottom plate so as to give a density of 1×10⁵ to 5×10⁵ cells/100 μL/well. The plates were centrifugation at 1,500 rpm for 5 minutes (05PR-22, manufactured by Hitachi Koki), and then the supernatant was removed.
As the primary antibody, the purified antibody which was a test substance was diluted to give a final concentration of 0.01 μg/mL to 10 μg/mL in 1% BSA-PBS, and dispensed to the plate at 100 μL/well, followed by reaction at ice temperature for 60 minutes. After washing the cells with 1% BSA-PBS, FITC-labeled anti-human immunoglobulin G (H+L) (manufactured by Jackson Laboratories) diluted with 1% BSA-PBS was added as the secondary antibody, followed by reaction at ice temperature for 30 minutes protected from light. The cells were washed with 1% BSA-PBS and then suspended in PBS. The fluorescence intensity of the cells was measured by a flow cytometer (Cytomics FC500 MPL, manufactured by Beckman Coulter).

Test [5] addresses T3, human ASCT2-myc/His (fusion protein in …). Kind of test: flow cytometry on human ASCT2-myc/His gene-introduced CHO cells.

B1: anti-ASCT2 monoclonal antibody KM4008 (antibody, V domains shown)
VH: QIQLVQSGPELKKPGETVKISCKASGYTFTTFGMSWVKQVPGKGLKWMGWIHTYAGVPIYGDDFKGRFAFSLETSASTAYLQINNVKNEDTATYFCARRSDNYRYFFDYWGQGTTLTVSS
VL: DIQMTQTTSSLSASLGDRVTISCRASQDIRNYLNWYQRKPHGTVKLLIYYTSRLHSGVPSRFSGSGSGTDYSLTISNLEQEDIATYFCQQGHTLPPTFGGGTKLEIKR
notes: mouse IgG3, kappa (amplified with a mouse Ig kappa primer)
Consider B1, for which the binding result in test [1], in test [2] and in test [3] was “binds” throughout.

B2: anti-ASCT2 human chimeric antibody cKM4008 (antibody, V domains shown)
VH: QIQLVQSGPELKKPGETVKISCKASGYTFTTFGMSWVKQVPGKGLKWMGWIHTYAGVPIYGDDFKGRFAFSLETSASTAYLQINNVKNEDTATYFCARRSDNYRYFFDYWGQGTTLTVSS
VL: DIQMTQTTSSLSASLGDRVTISCRASQDIRNYLNWYQRKPHGTVKLLIYYTSRLHSGVPSRFSGSGSGTDYSLTISNLEQEDIATYFCQQGHTLPPTFGGGTKLEIKR
notes: VH and VL of KM4008 joined to human CH and CL of vector pKANTEX93; SDS-PAGE pattern of the IgG class
Turning to B2, the binding result in test [4] and in test [5] was “binds” throughout.

B3: anti-ASCT2 human chimeric antibody cKM4012 (antibody, V domains shown)
VH: QIQLVQSGPELKKPGETVKISCKASGYTFTTYGMSWVKQTPGKGLKWMGWIHTYSGVPIYGDDSKGRFAFSLETSGSIAYLQINNVKNEDTATYFCARRSDGYRYFFDYWGQGTTLTVSS
VL: DIQMTQITSSLSASLGDRVTISCRASQDIRNYLNWYQQKPDGTVKLLIYYTSRLHSGVPSRFSGSGSGTDYSLTISNLEQEDIATYFCQQGNTLPPTFGGGTKLEIKR
notes: VH and VL of KM4012 joined to human CH and CL of vector pKANTEX93; IgG class
As for B3, the binding result in test [4] and in test [5] was “binds” each time.

B4: anti-ASCT2 monoclonal antibody KM4012 (antibody, mouse IgG2b, V domains shown)
VH: QIQLVQSGPELKKPGETVKISCKASGYTFTTYGMSWVKQTPGKGLKWMGWIHTYSGVPIYGDDSKGRFAFSLETSGSIAYLQINNVKNEDTATYFCARRSDGYRYFFDYWGQGTTLTVSS
VL: DIQMTQITSSLSASLGDRVTISCRASQDIRNYLNWYQQKPDGTVKLLIYYTSRLHSGVPSRFSGSGSGTDYSLTISNLEQEDIATYFCQQGNTLPPTFGGGTKLEIKR
notes: mouse IgG2b, kappa
With B4, the binding result in test [1], in test [2] and in test [3] was “binds” throughout.

B5: anti-ASCT2 humanized antibody KM4008HV2LV3 (antibody, V domains shown)
VH: QVQLVQSGSELKKPGAPVKVSCKASGYTFSTFGMSWVRQAPGQGLKWMGWIHTYAGVPIYGDDFKGRFVFSLDTSVSTAYLQISSLKAEDTAVYFCARRSDNYRYFFDYWGQGTTVTVSS
VL: DIQMTQSPSSLSASLGDRVTITCRASQDIRNYLNWYQQKPGKAPKLLIYYTSRLHSGVPSRFSGSGSGTDYTLTISSLQPEDFATYFCQQGHTLPPTFGQGTKLEIK
notes: Expressed from vector pKANTEX93 with human CH and CL; SDS-PAGE pattern of an IgG class antibody
Take B5: the binding result in test [1] and in test [5] was “binds” throughout.

B6: anti-ASCT2 humanized antibody KM4008HV10LV3 (antibody, V domains shown)
VH: QIQLVQSGPELKKPGAPVKISCKASGYTFTTFGMSWVKQAPGQGLKWMGWIHTYAGVPIYGDDFKGRFVFSLDTSVSTAYLQISSVKAEDTATYFCARRSDNYRYFFDYWGQGTTLTVSS
VL: DIQMTQSPSSLSASLGDRVTITCRASQDIRNYLNWYQQKPGKAPKLLIYYTSRLHSGVPSRFSGSGSGTDYTLTISSLQPEDFATYFCQQGHTLPPTFGQGTKLEIK
notes: as for B5
Regarding B6, the binding result in test [1] and in test [5] was “binds” throughout.

B7: anti-ASCT2 human chimeric antibody cKM4018 (antibody, V domains shown)
VH: EVQLVESGGGLVQSGRSIRLSCAASGFSFSNYYMAWVRQAPSKGLEWVASITKGGGNTYYRDSVKGRFTFSRDNAKSTLYLQMDSLRSEDTATYYCARQVTIAAVSTSYFDSWGQGVMVTVSS
VL: DIVLTQSPALAVSLGQRATISCKTNQKVDYYGNSYVYWYQQKPGQQPKLLIYLASNLASGIPARFSGRGSGTDFTLTIDPVEADDTATYYCQQSRNLPYTFGAGTKLELKR
notes: VH and VL of KM4018 joined to human CH and CL of vector pKANTEX93; IgG class
Turning to B7, the binding result in test [4] and in test [5] was “binds” each time.
